T1: recombinant mRGMb-HIS (R&D) (mouse, UniProt Q7TQ33 49-415, limits assumed)
T1 construct: Bought from R&D; not shown: HIS tag
T1 sequence (looked up): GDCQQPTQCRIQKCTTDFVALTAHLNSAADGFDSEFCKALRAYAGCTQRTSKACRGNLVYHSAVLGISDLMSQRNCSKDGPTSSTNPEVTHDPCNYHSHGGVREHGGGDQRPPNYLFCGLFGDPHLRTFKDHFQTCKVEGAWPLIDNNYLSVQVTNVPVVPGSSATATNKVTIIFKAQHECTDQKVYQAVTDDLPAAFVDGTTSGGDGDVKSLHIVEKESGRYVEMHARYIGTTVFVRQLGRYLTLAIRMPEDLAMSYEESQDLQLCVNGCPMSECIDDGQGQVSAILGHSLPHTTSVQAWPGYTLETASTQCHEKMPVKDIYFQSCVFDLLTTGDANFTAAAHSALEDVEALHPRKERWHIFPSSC

T2: mPD-L2-Ig fusion protein (construct not told at the result) (mouse, UniProt Q9WUL5 20-221)
T2 construct: extracellular domain; not shown: Ig part: the methods name mPD-L2-hIgG1/IgA, mPD-L2-mIgG2a/IgA and mPD-L2-hIgG (R&D)
T2 sequence (looked up): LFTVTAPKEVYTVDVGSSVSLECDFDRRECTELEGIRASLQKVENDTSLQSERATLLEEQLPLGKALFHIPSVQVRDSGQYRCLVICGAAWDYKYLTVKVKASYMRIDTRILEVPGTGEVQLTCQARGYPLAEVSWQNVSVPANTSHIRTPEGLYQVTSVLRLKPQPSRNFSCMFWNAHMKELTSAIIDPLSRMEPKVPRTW

T3: recombinant hRGMb-HIS (R&D) (human, UniProt Q6NW40 46-413)
T3 construct: Bought from R&D; not shown: HIS tag
T3 sequence: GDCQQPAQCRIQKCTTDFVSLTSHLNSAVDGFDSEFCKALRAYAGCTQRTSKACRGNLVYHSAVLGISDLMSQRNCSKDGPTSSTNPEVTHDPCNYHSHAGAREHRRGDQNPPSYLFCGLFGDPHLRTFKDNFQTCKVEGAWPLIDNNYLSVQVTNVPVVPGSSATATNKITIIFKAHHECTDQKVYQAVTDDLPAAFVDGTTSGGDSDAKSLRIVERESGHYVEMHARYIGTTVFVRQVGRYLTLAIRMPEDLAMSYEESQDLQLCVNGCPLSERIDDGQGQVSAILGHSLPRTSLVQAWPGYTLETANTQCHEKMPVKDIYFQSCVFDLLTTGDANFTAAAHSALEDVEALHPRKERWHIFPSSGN

T4: mouse RGMb (mRGMb) expressed on transfected cells (mouse, UniProt Q7TQ33 49-415)
T4 construct: whole, on cells; Also used for mRGMb in cell lysates (Western blot); also called DRAGON; 300-mRGMb cells
T4 sequence (looked up): T1 sequence (looked up)

T5: mRGMb-Ig fusion protein (mRGMb-mIgG2a) (mouse, UniProt Q7TQ33 49-415, limits assumed)
T5 construct: extracellular domain; Purified from CHO cell culture supernatants
T5 sequence (looked up): T1 sequence (looked up)

B1: recombinant mouse BMP-2 (GIBCO) (ligand, UniProt P21274 281-394, looked up)
chain: QAKHKQRKRLKSSCKRHPLYVDFSDVGWNDWIVAPPGYHAFYCHGECPFPLADHLNSTNHAIVQTLVNSVNSKIPKACCVPTELSAISMLYLDENEKVVLKNYQDMVVEGCGCR
notes: Coated on ELISA plates at 1 ug/ml; also called mBMP-2; BMP-2/4
B2: mouse PD-1 (mPD-1) expressed on transfected 300 cells (receptor, UniProt Q02242 25-288, looked up)
chain: LEVPNGPWRSLTFYPAWLTVSEGANATFTCSLSNWSEDLMLNWNRLSPSNQTEKQAAFCNGLSQPVQDARFQIIQLPNRHDFHMNILDTRRNDSGIYLCGAISLHPKAKIEESPGAELVVTERILETSTRYPSPSPKPEGRFQGMVIGIMSALVGIPVLLLLAWALAVFCSTSMSEARGAGSKDDTLKEEPSAAPVPSVAYEELDFQGREKTPELPTACVHTEYATIVFTEGLGASAMGRRGSADGLQGPRPPRHEDGHCSWPL
notes: whole, on cells; also called 300-mPD-1 cells; mPD-1 cells
B3: hPD-L2-mIgG2a fusion protein (Fc fusion)
chain: LFTVTVPKELYIIEHGSNVTLECNFDTGSHVNLGAITASLQKVENDTSPHRERATLLEEQLPLGKASFHIPQVQVRDEGQYQCIIIYGVAWDYKYLTLKVKASYRKINTHILKVPETDEVELTCQATGYPLAEVSWPNVSVPANTSHSRTPEGLYQVTSVLRLKPPPGRNFSCVFWNTHVRELTLASIDLQSQMEPRTHPT
notes: not shown: mouse IgG2a part
B4: recombinant mouse BMP-4 (R&D) (ligand, UniProt P21275 293-408, looked up)
chain: SPKHHPQRSRKKNKNCRRHSLYVDFSDVGWNDWIVAPPGYQAFYCHGDCPFPLADHLNSTNHAIVQTLVNSVNSSIPKACCVPTELSAISMLYLDEYDKVVLKNYQEMVVEGCGCR
notes: Coated on ELISA plates at 1 ug/ml; also called mBMP-4; BMP-2/4
B5: mouse PD-L2 (mPD-L2) expressed on transfected 300 cells (ligand, UniProt Q9WUL5 20-247, looked up)
chain: LFTVTAPKEVYTVDVGSSVSLECDFDRRECTELEGIRASLQKVENDTSLQSERATLLEEQLPLGKALFHIPSVQVRDSGQYRCLVICGAAWDYKYLTVKVKASYMRIDTRILEVPGTGEVQLTCQARGYPLAEVSWQNVSVPANTSHIRTPEGLYQVTSVLRLKPQPSRNFSCMFWNAHMKELTSAIIDPLSRMEPKVPRTWPLHVFIPACTIALIFLAIVIIQRKRI
notes: whole, on cells; also called 300-mPD-L2 cells; mPD-L2 transfected cells

Columns and labels:
[1] = target: T1, recombinant mRGMb-HIS (R&D); experiment: ELISA, coated BMP-2, mRGMb-HIS bridging PD-L2-Ig
Experimental: (§1) To determine if RGMb binds PD-L2 and BMP-2/4 simultaneously, 96-well ELISA plates were coated with BMP-2/4 as above. mPD-L2-hIgG1/IgA, mPD-L2-hIgG (R&D), mPD-L1-hIgG (R&D) or control-Ig fusion proteins at 10 μg/ml were preincubated with 10 μg/ml mRGMb-HIS (R&D) or buffer alone for 15 min. at room temperature (RT), then added to the plates and incubated for 1h at 37° C. Alternatively, 10 μg/ml mRGMb-HIS (R&D) or buffer alone was added first to the plates and incubated for 1h at 37° C. After wash, mPD-L2-Ig or control-Ig fusion proteins were added and incubated for 1h at 37° C. Fab₂ goat anti-hIgG-HRP (Jackson ImmunoResearch Laboratories) at 1:10000 was used for detection.
(§2) To test if RGMb can bind both PD-L2 and BMP at the same time, an ELISA was performed to analyze the binding capacity of PD-L2-Ig fusion protein to immobilized BMP-2/4 in the presence or absence of RGMb. PD-L2 could not directly bind to BMP-2/4, but in the presence of RGMb could form a complex with BMP when RGMb and PD-L2-Ig were added simultaneously (FIG. 4A-4B) or sequentially to BMP-2/4.

[2] = target: T2, mPD-L2-Ig fusion protein (construct not …); experiment: ELISA, coated BMP-2, PD-L2-Ig added without RGMb
Experimental: as §1, §2

[3] = target: T6, mouse PD-L1 (mPD-L1) expressed on transfected 300 cells (mouse, UniProt Q9EP73 19-290); experiment: cell conjugation assay, flow cytometry
T6 construct: whole, on cells; also called 300-mPDL 1; mPD-L1 cells
Experimental: (§3) An assay for receptor-ligand binding was developed based on cell to cell binding as determined by flow cytometry. One transfected cell type was labelled with the red dye PKH26 (Sigma) and the other transfected cell with the green dye PKH67 (Sigma) according to the manufacturer's instructions. Red dye-labelled and green dye-labelled cells ([…] each cell type) were incubated in 200 μl of HBSS buffer without calcium and magnesium (GIBCO) supplemented with 10% heat-inactivated FBS (Invitrogen), 15 μg/ml gentamicin (Invitrogen) and 1% HEPES (Invitrogen) in a round bottom 96-well plate for 45 min at 37° C. When the cell conjugation assay was used to test the blocking capacity of antibodies, one transfected cell type was pre-incubated 30 min at RT with antibodies before adding the other type of transfected cells. Conjugate formation was analyzed immediately by flow cytometry using the PE channel for the red dye and the FITC channel for the green dye. The automated plate harvester of the FACSCanto (BD Biosciences) was used for uniformity of cell processing. The instrument settings were as follows, throughput mode: standard, loader settings: sample flow rate at 0.5 μl/second, sample volume and mixing volume at 100 μl, mixing speed at 50 μl/second, number of mixes at 2, and wash volume at 400 μl.
(§4) To test the RGMb:PD-L2 interaction under more physiologic conditions, a cell conjugation assay was used where one transfected cell type was labeled with a red dye and the other transfected cell type with a green dye. The binding of the two cell types was assessed by flow cytometry and indicated by double positive events (yellow dots). […] FIGS. 1L, 1N, 1P, and 1R show only the dot plots without corresponding FSC-SSC plots. As expected, mRGMb cells bound to mPD-L2 cells (FIG. 1K), but not mPD-L1 cells (FIG. 1L). As positive controls, mPD-1 cells bound to both mPD-L2 and mPD-L1 cells (FIGS. 1M-1N). Negative control binding assays had very few conjugates (<0.3%) (FIGS. 1O-1R).

[4] = target: T3, recombinant hRGMb-HIS (R&D); experiment: ELISA, coated hRGMb-HIS, PD-L2-Ig in solution
Experimental: (§5) To examine RGMa/RGMb/RGMc and PD-L2 interaction, 96-well ELISA plates were coated with 2 or 5 μg/ml of recombinant mRGMa-HIS, mRGMb-HIS, mRGMc-HIS, or hRGMb-HIS (R&D). Then, serial dilutions of mPD-L2-hIgG1/IgA, mPD-L2-mIgG2a/IgA, hPD-L2-mIgG2a or control-Ig fusion proteins were added and incubated for 1h at 37° C. Fab₂ goat anti-hIgG-HRP (Jackson ImmunoResearch Laboratories) or rat anti-mIgG2a-HRP (BD Biosciences) at 1:1000 or 1:10000 were used for detection.

[5] = target: T1, recombinant mRGMb-HIS (R&D); experiment: ELISA, coated mRGMb-HIS, PD-L2-Ig in solution
Experimental: as §5

[6] = target: T2, mPD-L2-Ig fusion protein (construct not …); experiment: ELISA, coated BMP-4, PD-L2-Ig added without RGMb
Experimental: as §1, §2

[7] = target: T1, recombinant mRGMb-HIS (R&D); experiment: ELISA, coated BMP-4, mRGMb-HIS bridging PD-L2-Ig
Experimental: as §1, §2

[8] = target: B2; experiment: cell conjugation assay, flow cytometry
Experimental: as §3, §4

[9] = target: T4, mouse RGMb (mRGMb) expressed on …; experiment: cell conjugation assay, flow cytometry
Experimental: as §3, §4

[10] = target: T5, mRGMb-Ig fusion protein (mRGMb-mIgG2a); experiment: flow cytometry on mPD-L2 transfected 300 cells

T6 sequence (Q9EP73 19-290): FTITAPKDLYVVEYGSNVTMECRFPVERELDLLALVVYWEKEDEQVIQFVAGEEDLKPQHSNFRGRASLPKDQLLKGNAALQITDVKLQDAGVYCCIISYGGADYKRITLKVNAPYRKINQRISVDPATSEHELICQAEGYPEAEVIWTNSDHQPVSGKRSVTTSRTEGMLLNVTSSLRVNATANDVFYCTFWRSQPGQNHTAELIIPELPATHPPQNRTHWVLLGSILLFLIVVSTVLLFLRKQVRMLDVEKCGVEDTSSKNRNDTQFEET

Binder: B1
binding result [1]: binds
binding result [2]: no binding (tested: 10 ug/ml)

Binder: B2
binding result [3]: binds

Binder: B3
binding result [4]: binds
binding result [5]: binds

Binder: B4
binding result [6]: no binding (tested: 10 ug/ml)
binding result [7]: binds

Binder: B5
binding result [8]: binds
binding result [9]: binds
binding result [10]: binds
